Residue numbers refer to the chain shown, from its start.
B1: 13C8 VHH-Fc (Fc fusion)
chain: QVQLVESGGGLVQAGGSLRLSCAASGRTVNKYMTGWFRQTPGKEREFVASIDWSSTTTHYANSVKGRFTISRDKVKNTVYLQMNGLKPEDTAVYYCAAHQDSSYGYTILPIDYDSWGQGTQVTVSS
B2: 1E4 VHH-Fc (Fc fusion)
chain: QVLLVESGGGLVQAGGLLRLACSASGRTFTENVMGWFRQAPGKEREFVAAINWNTGSTYYSDSRKGRFTISKDNAKNTMFLQINNLKPEDTAVYYCGGTSSSYYYIGEFIPDYWGQGTQVTVSS
B3: 10B8 VHH-Fc (Fc fusion)
chain: QVQLVESGGGLVQPGGSLRLSCAASGITLDYYAIAWFRQAPGKEREGVSCFCSSDGDIRYADSVKGRFTISRDNAKNTVYLQMNSLKPEDTAVYYCATERVYSSTWFFHRYSELDFGSWGRGTQVTVSS
B4: 3D4 VHH-Fc (Fc fusion)
chain: QVQLVESGGGLVQPGGSLRLSCAASGFTLDLNSIGWFRQAPGKEREGVSCISPSGSRMHYADSVKGRFTISRDNAKNTVYLQMNSLKPEDTAVYYCATGSPSYHYCSMYGLEYDSWGQGTQVTVPS
B5: 19C10 VHH-Fc (Fc fusion)
chain: B4 chain with G55A, R57S, M58T, S100T, S115D, P125S
B6: 19B8 VHH-Fc (Fc fusion)
chain: QVQLVESGGGLVQAGGSLRLSCAASGRTFTNYAMGWFRQAPGKEREFVAAISWSGGGTNYADSVKGRFTISRDNAKNTVYLQMNSPKPEDTAVYYCATTLGYYGSSSRLYEYWGQGTQVTVSS
B7: 1A11 VHH-Fc (Fc fusion)
chain: QVQLVESGGGLVQAGGSLRLSCEVSGSIYSINSMGWYRQAPGKQRELVAGIVSDGRINYADSVKGRFTISRAKNTVYLQMNSLKPEDTAVYYCAADRAFVYAGDYDYLGQGTQVTVSS
B8: 5A6 VHH-Fc (Fc fusion)
chain: QVQLVESGGGLAQAGGSLRLSCATSGLTFSMSAMGWFRQAPGNEREFVGVINWNGGSSRYADSVRGRFTISRDNAKNTVYLQMNSLKPEDTGVYYCAADALNIGTGEVNPRLYDYWGQGTQVMVSS
B9: 5D7 VHH-Fc (Fc fusion)
chain: QVQLVESGGGLVQAGGSLRLSCAASGRTGSRYIMGWFRQAPGKEREFVAAINWRGDSTYYADSVKGRFTIARDNAKNTAYLQMNSLKPEDTAVYYCVADRGESYYYTRSTEYTYWGQGTQVTVSS
B10: 8E9 VHH-Fc (Fc fusion)
chain: QVQLVESGGGLVEAGGSLRLSCVASGSSSSINAMGWYRQAPGKQRELVASISHDGETKYANSVKGRFTISRGNAKNTIYLQMNSLKPEDTAVYYCVGDVAWVVVAGEYDYWGQGTQVTVSS
B11: 15H7 VHH-Fc (Fc fusion)
chain: QVQLVESGGRLVQAGGSLRLSCAAPGRTFRNLTLGWFRQAPGKEREFVASTSWPDDEMTYYTDSVKGRFTISRDNAKNTVYLQMNSLKPEDTAVYYCAAASWSGRSTLSYDYDYWGQGTQVTVST
B12: 15H1 VHH-Fc (Fc fusion)
chain: QVQLVESGGGLAQAGGSLRLSCASSGLIFSGSAMGWFRQAPGKEREFVGVISWNGRTTYADSVKGRFTISRDDAVNMVWLQMNNLKPEDTAVYYCAADHLNYGSGDVNPRTYDYWGQGTQVTVSS
B13: 19E10 VHH-Fc (Fc fusion)
chain: QVQLVESGGGLVQPGGSLRLSCVASGSTISINSMGWYRQAPGKAREMVATITNDGPIKYADPVKGRFTISRDNPKNTVYLQMNSLKPEDTAVYYCVADRAYWLAGEWEYWGQGTQVTVSS
B14: 11F8 VHH-Fc (Fc fusion)
chain: QVQLVESGGGLVQAGGSLRLSCAASGRTVGYYAVGWFRQAPGKERDFVAAISWSGRNTNYADSVTGRFTIFRDNAKNTVDLQMNSLKPEDTAVYYCAADYWNYGSGSEVPNNYDTWGQGTQVTVSS
B15: 7A9 VHH-Fc (Fc fusion)
chain: QVQLVESGGGLVQAGGSLRLSCSASGGTASRSAMGWFRQAPGKEREFVAGISRRNSGSTYVADSYEDSVKGRFTISRDNAKNTIYLQMNSLKPEDTAVYYCAAEPTLGWYVPRRSVEYEYWGQGTQVTVSS
B16: 9B2 VHH-Fc (Fc fusion)
chain: QVQLVESGGGLVQPGGSLRLSCAASGFTLDNYAIGWFRQAPGKEREGVSCISSSDGDTQYADSVKGRFTISRDNAKNTVYLQMNSLKPEDTAVYYCAVEKVYARSWFFHLCSELDFGSWGQGTQVTVSS

Biological target: SARS-CoV-2 WT spike on rVSV-deltaG-Luc pseudovirus (SARS-CoV-2), P0DTC2
Assay: cell-based or functional assay

| Binder | pseudovirus neutralization IC50 |
| --- | --- |
| B1 | 6.69 nM |
| B2 | 0.31 nM |
| B3 | 0.68 nM |
| B4 | 1.22 nM |
| B5 | 1.49 nM |
| B6 | 53.5 nM |
| B7 | 0.57 nM |
| B8 | 8.57 nM |
| B9 | 6.52 nM |
| B10 | 12.4 nM |
| B11 | 1.33 nM |
| B12 | 5.04 nM |
| B13 | 1.53 nM |
| B14 | 1.07 nM |
| B15 | 110 nM |
| B16 | 1.93 nM |

— patent US20250382355A1
